Test results as given in paper doi:10.1101/2021.04.14.439859.

Columns and labels:
Assay in all cases: fluorescence polarisation
[1] = biological target: H3-H4 (Alexa-488 H4) (human) (UniProt P68431)
TLH4 nucleosome (human) = TLH4 nucleosome (human) (UniProt P04908)
[2] = biological target: H2A-H2B (Alexa-488 H2B) (human) (UniProt P04908)
TLH3 nucleosome (human) = TLH3 nucleosome (human) (UniProt P04908)

- Kd [1]: 1.2 nM
- Kd (TLH4 nucleosome (human)): 110 nM
- Kd [2]: 10 nM
- Kd (TLH3 nucleosome (human)): 330 nM
Substance: SMARCAD1 (from UniProt Q9H4L7 1-1026) (enzyme)
